From patent US20090053225A1 (QUARK PHARMACEUTICALS, published 2009)

T1: CD59 purified from human erythrocytes (human, UniProt P13987 26-102)
T1 construct: mature; Native protein purified from red cells; coated on plates for ELISA, or incubated with guinea pig erythrocytes (GPE-CD59) for the reactive lysis test
T1 sequence (looked up): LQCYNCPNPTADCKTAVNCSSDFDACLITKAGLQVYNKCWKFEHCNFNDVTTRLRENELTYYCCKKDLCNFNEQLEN

T2: CD55 purified from human erythrocytes (human, UniProt P08174 35-353)
T2 construct: mature; Native protein purified from red cells; coated on plates for ELISA, or incubated with antibody-sensitised sheep erythrocytes (EA-CD55) for the hemolytic assay; also called decay-accelerating factor; DAF
T2 sequence (looked up): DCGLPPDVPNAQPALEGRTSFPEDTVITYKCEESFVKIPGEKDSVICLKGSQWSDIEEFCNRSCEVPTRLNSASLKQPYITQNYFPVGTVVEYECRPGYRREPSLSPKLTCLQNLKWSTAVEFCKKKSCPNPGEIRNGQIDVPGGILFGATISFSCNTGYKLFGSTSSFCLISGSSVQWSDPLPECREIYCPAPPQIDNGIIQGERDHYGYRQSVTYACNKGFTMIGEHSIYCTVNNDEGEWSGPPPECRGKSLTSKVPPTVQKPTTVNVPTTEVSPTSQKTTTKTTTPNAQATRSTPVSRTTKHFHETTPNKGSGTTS


Tests used:
[1] = molecular target: T1, CD59 purified from human erythrocytes; experiment: ELISA with phage and soluble scFv on coated purified antigen
Experimental: (§1) Microtiter plates were coated with 100 μl of the various CRPs (10 μg/ml) followed by 100 μl of phage suspension in MPBS. Anti-M13 peroxidase conjugated mAb was used as a secondary antibody. Data represent mean values±SD of three different experiments.
(§2) The specificity of the selected clones was assessed by ELISA using both phage and soluble scFv (FIG. 1).

[2] = molecular target: T2, CD55 purified from human erythrocytes; experiment: as above
Experimental: as §1, §2

Row | binding result [1] | binding result [2] | Binder
1 | no binding |  | scFv TS-55 (anti-CD55 clone) (scFv, also called Clone anti CD 55; anti-CD55 scFv) scFv: SSELTQEPAVSVALGQTVSITCQGDSLRSYYASWYQQKPGQAPIPVIYGKNNRPSGIPDRFSGSSSGNTASLTITGAQAEDEADYYCSSRDNRGTHRWVFGGGTKLTVLSGGSTITSYNVYYTKLSSSGTQVNLRESGGGLVQPGRSLRLSCAASGFTFDDYAMHWVRQAPGKGLEWVSGISWNSGSIGYADSVKGRFTISRDNAKNSLYLQMNSLRAEDTALYYCAKDRSDRGRLLDYWGLGTLVTVS
2 |  | no binding | scFv TS-59 (anti-CD59 clone) (scFv, also called Clone anti CD 59; anti-CD59 scFv) scFv: DIVLTQSPDSLAVSLGERATINCKSSQSVLYSSNNKNYLAWYQQKPGQPPKLLIYWASTRESGVPDRFSGSGSGTDFTPAISSLQAEDVAVYYCQQYYSTPQLTFGGGTKVDIKSGGSTITSYNVYYTKLSSSGTQVQLQQSGGGVVQPGRSLGLSCAASGFTFSSYGMNWVRQAPGKGLEWVSYISSSSSTIYYADSVKGRFTISRDNSKNTLYLQMNSLRAEDTAVYYCARGPGMDVWGQGTTVTVS
